Laboratory results reported in US20210324011A1 (University of Washington, published 2021).

Columns and labels:
[1] = biological target: the molecule itself; assay: negative stain EM; 1 = filaments observed (self-assembly)
Excerpt: The designs were expressed in Escherichia coli under the control of a T7 promoter and purified using immobilized metal affinity chromatography (IMAC). […] IMAC eluates were concentrated, and filament formation was monitored by negative stain electron microscopy (EM); insoluble designs were characterized by EM either directly in the initial insoluble fraction, or after solubilization in guanidine hydrochloride, IMAC, and subsequent removal of denaturant.
Negative Stain Electron Microscopy. Soluble fractions were concentrated and insoluble fractions were resuspended in buffer (25 mM Tris, 75 mM NaCl, pH 8) for EM screening. A drop of 6 μL (1 μl sample instantly diluted with 5 μl of buffer) was applied on negatively glow discharged, carbon-coated 200-mesh copper grids (Ted Pella, Inc.), washed with Milli-Q™ Water and stained using 0.75% uranyl formate as described previously (28). The screening was performed on either a 120 kV Tecnai Spirit™ T12 transmission electron microscope (FEI, Hillsboro, Oreg.) or a 100 kV Morgagni M268 transmission electron microscope (FEI, Hillsboro, Oreg.). Images were recorded on a bottom mount Teitz CMOS™ 4 k camera system. The contrast of the images was enhanced in the Fiji software (29) for clarity.

[2] = biological target: T1, DHF119_C6_anchor; assay: anchor on streptavidin-coated magnetic beads, microscopy
T1 construct: hexamer: avi-tag, monomer of designed hexamer 3H22, (GGS)5 linker, C cap of DHF119; also called anchor DHF119_C6
T1 chain: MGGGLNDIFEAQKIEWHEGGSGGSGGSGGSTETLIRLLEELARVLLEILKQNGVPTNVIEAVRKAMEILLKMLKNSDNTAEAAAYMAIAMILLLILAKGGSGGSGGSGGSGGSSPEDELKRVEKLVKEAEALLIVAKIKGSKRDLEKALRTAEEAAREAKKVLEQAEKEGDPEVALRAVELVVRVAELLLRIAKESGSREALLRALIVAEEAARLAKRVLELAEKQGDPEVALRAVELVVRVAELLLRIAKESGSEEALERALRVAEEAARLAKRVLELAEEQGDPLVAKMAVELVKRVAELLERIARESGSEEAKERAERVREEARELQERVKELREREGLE
Excerpt: We sought to replicate this mechanism of control by designing multimeric anchor constructs, with multiple monomeric subunits held close to the relative orientations in the corresponding filaments by a fusion to designed homo-oligomers with the appropriate geometry (FIG. 14; one of the interaction interfaces is eliminated to restrict fiber growth in one direction). […] To study the kinetics of filament formation in vitro in more detail, we attached the anchors to glass slides, added monomers fused to yellow fluorescent protein (YFP) and monitored fiber formation by total internal reflection (TIRF) microscopy. The anchors seeded the rapid growth of multiple micron length fibers over 30 minutes (FIG. 4C; for analysis of growth kinetics of a second fiber see FIG. 15).

[3] = biological target: T1, DHF119_C6_anchor; assay: TIRF microscopy over 30 minutes
Protocol: Filament Growth In Vitro. PEG-silane coated glass coverslips were attached to similarly-coated slides with strips of double-stick tape to make flow chambers. All incubations were at 25° C.
The background of the tif movies was subtracted using the software Fiji (29) with a ball radius of 5.0. The contrast was modified to reduce background noise to facilitate fiber identification. CellProfiler™ software (37) was used to identify and track fiber through the different time frames. The output files from CellProfiler™ provided the Major axis length for every fiber through all the movie.

[4] = biological target: the molecule itself; assay: fluorescence microscopy in living E. coli (self-assembly)

| Binder | binding result [1] | further results |
| --- | --- | --- |
| DHF25 (designed binder, vector pCDB24 (SUMO fusion); forms a homo-polymer) ARVVLKRVEKLVKEAETLLLVAIMKGSEEDLEKALRTAEEAAREAKKVLVLAVVVGDPEVALRAVELVVRVAELLLLIAIISGSEEALERALRVAEEAARLAKRVLELAENQGDPEVALRAVELVVRVAELLLMIAKVSGSEEALERALRVAEEAARLAKRVLELAEKQGDPEVARRAVELVKRVAELLERIARESGSEEAKERAERVREEALQLQARVMNLREREG | binds | – |
| DHF82 (designed binder, vector pET28b; forms a homo-polymer) MGPEEILESAKESLERAREASEAGLELVFRLAAEVALELAKRLVEQAKKEGDPELVLEAAKVALRVAELAAKNGDKEVFKKAAESALEVAKRLVEVASKEGDPELVLEAAKVALRVAELAAKNGDKEVFKKAAESALEVAKRLVEVASKEGDPTLVIMALIVAEEVIKLASKQGDELVMLKAVETAKEVKEEAMRVMLEKGLE | binds | – |
| DHF20 (designed binder, vector pCDB24 (SUMO fusion); forms a homo-polymer) MDEMKARLLIERAKEAAERAQEAAERTGDPLVRLLAEMLKRLAQEAAEEVKRDPSSSDVNEALKLIVEAIEAAVRALEAAERTGDPEVRELASELVRLAVEAAEEVQRNPSSSDVNEALKLIVEAIEAAVRALEAAERTGDPRVRELARELVRLAVEAAEEVQRNPSSVEVALALLKIVKAIEEAVESLREAEESGDPMKRLEAALRVREAVERAEEVQRN | binds | – |
| DHF16 (designed binder, vector pET28b; forms a homo-polymer) MGQILMKAKLSLVKAAEASLSGDELEFRIAAETALVLAKLLVLQAKKKGDPELVLEAAKVALRVAELAAKNGDKEVFKKAAESALEVAKRLVEVASKEGDPELVLEAAKVALRVAELAAKNGDKEVFKKAAESALEVAKRLVEVASKEGDPELVEEAAKVAEEVRKLAKKQGDEEVYEKARETAREVKEELKRVREEKGLE | binds | – |
| DHF9 (designed binder, vector pET28b; forms a homo-polymer) MGLILELAKLSLERARLASEAGDRVEFKIAAEKALLLAKVLVLQAKKEGDPELVLEAAKVALRVAELAAKNGDKEVFKKAAESALEVAKRLVEVASKEGDPELVLEAAKVALRVAELAAKNGDKEVFKKAAESALEVAKRLVEVASKEGDPELVEEAAKVAEEVRKLAKKQGDEEVYEKARETAREVKEELKRVREEKGDLE | binds | – |
| DHF119 (designed binder, vector pET28b; forms a homo-polymer; cryoEM PDB 6E9Z) MGPEDELKRVEKLVKEAEALLIVAKIKGSKRDLEKALRTAEEAAREAVKVLVQALLEGDPEVALRAVELVVRVAELLLRIAKESGSREALLRALIVAEEAAKLAKMVLELAEKQGDPEVALRAVELVVRVAELLLRIAKESGSEEALERALRVAEEAARLAKRVLELAEEQGDPLVAKMAVELVKRVAELLERIARESGSEEAKERAERVREEARELQERVKELREREGLE | – | binding result [2]: binds |
| DHF119-GFP (designed binder, not shown: green fluorescent protein) MGPEDELKRVEKLVKEAEALLIVAKIKGSKRDLEKALRTAEEAAREAVKVLVQALLEGDPEVALRAVELVVRVAELLLRIAKESGSREALLRALIVAEEAAKLAKMVLELAEKQGDPEVALRAVELVVRVAELLLRIAKESGSEEALERALRVAEEAARLAKRVLELAEEQGDPLVAKMAVELVKRVAELLERIARESGSEEAKERAERVREEARELQERVKELREREGLE | – | binding result [3]: binds |
| DHF107 (designed binder, vector pET28b; forms a homo-polymer) MGPEEILERAKESLERAREASERGDEMEFRIAAQKALELARQLVLQALAEGDPELVLEAAKVALRVAELAAKNGDKEVFKKAAESALEVAKVLVLVASKEGKPELVLEAAKVALRVAVLAAMNGDKEVFKKAAESALEVAKRLVEVASKEGDPELVLEAAKVAEKVRVLAAVQGDEEVYEKARETAREVKEELKRVMEEKGLE | binds | – |
| DHF91 (designed binder, vector pET28b; forms a homo-polymer; cryoEM PDB 6E9X) MGDERRELEKVAVKAIMAAMLGNTDEVREQLQRALEIARESGTLLAVVLALEVVARVAIEAARKGNTDAVREALEVALEIARESGTKVAVVLALEVVARVAIEAARRGNVLAVILALEVALEIARESGTEEAALLAVEVVVRVSDEAKKQGNAVAVAVAEQVAKKILE | binds | – |
| DHF58-GFP (designed binder, expressed in E. coli; not shown: green fluorescent protein) MELLRVVMLVKEAEELLTLAVIKGSEDDLQKALRTAVEAAREAVKVLLQAVKRGDPEVALRAVELVVRVAELLLRIAKESGSELALKMALLVAEEAARLAKIVLELAEKQGDPEVALRAVELVVRVAELLLRIAKESGSEEALERALRVAEEAARLAKRVLELAEKQGDPEVARRAVELVKRVAELLERIARESGSEEAKERAERVREEARELQERVKELREREGLE | – | binding result [4]: binds |
| DHF17 (designed binder, vector pET28b; forms a homo-polymer) MGHHHHHHSSGSSEKEELRERLVEIVVALAKAKGDDTELAREAAREAFELVREAAERAGIDSSMVLILAIQLILEVVANAAKEGYDISLAALAAAEAFKRVAEAAKRAGITSSMVLILAIRLIKEVVENAQREGYDISLAALAAAEAFKRVAEAAKRAGITSSMTLMRAIEEIRKRVEEAQREGNDISEAARQAAEEFIIKAVVLKARGDV | binds | – |
